Data published in patent US20240158447A1, “PEPTIDES FOR USE IN THE TREATMENT OR PREVENTION OF MYOCARDIAL DAMAGE” (THE UNIVERSITY OF WESTERN AUSTRALIA, priority 2020, published 2024).

How the values were obtained:
Cavβ2 subunit = target: T1, Cavβ2 subunit (Homo sapiens, UniProt Q08289); assay: Competitive binding affinity assay, biotinylated AID affinity beads vs Cavβ2 subunit (Example 9); conditions: dose-response 0, 10 nM to 100 μM peptide; FIG. 9
T1 construct: incubated with 100 μg of Cavβ2 subunit from cardiac homogenate and cytoplasmic protein preparation; from tissue; host or cells: cardiac homogenate and cytoplasmic protein preparation
T1 sequence (Q08289 whole entry): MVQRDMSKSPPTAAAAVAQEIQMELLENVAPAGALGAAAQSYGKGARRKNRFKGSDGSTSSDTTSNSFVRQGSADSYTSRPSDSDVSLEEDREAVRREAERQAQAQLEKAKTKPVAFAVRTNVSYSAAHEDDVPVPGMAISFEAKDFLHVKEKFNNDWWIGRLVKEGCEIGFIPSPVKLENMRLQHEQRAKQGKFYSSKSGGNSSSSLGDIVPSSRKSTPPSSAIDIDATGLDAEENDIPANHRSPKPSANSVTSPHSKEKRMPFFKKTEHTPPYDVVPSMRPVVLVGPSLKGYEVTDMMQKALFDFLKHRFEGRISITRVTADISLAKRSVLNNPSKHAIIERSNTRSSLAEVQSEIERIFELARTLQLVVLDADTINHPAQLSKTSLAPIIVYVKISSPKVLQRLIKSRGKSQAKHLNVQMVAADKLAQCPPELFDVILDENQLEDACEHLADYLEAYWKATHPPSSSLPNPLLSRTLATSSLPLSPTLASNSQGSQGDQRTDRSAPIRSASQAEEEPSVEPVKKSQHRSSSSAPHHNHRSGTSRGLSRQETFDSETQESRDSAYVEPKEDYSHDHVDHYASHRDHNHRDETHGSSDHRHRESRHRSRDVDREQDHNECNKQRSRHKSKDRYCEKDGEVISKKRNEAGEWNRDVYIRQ
Description: In this experiment, a binding affinity assay was utilized to examine the binding efficacy of AID peptide variants presented in Table 8, compared to the original AID peptide.
Biotinylation of original AID (no TAT): For each reaction (a dose-response curve consisted of 6 reactions), 0.02 nM […] was incubated in biotinylation solution (0.1M MES buffer containing 1 nM amine-PEG11-biotin and 0.2 nM EDC) for 2 hrs at room temperature with agitation (400 rpm). Affinity beads (Dynabeads M-280 Streptavidin, ThermoFisher Scientific) were then incubated with biotinylated AID peptide for 30 min at room temperature with agitation (400 rpm). Afterwards, biotinylated AID-coated affinity beads were washed, initially in 0.1% BSA in PBS and then three times in PBS for 3 min.
Biochem J. 2000; 348 Pt 3:657-65; Haase H, Striessnig J, Holtzhauer M, Vetter R, Glossmann H. A rapid procedure for the purification of cardiac 1,4-dihydropyridine receptors from porcine heart. Eur J Pharmacol. 1991; 207(1):51-9).
Competitive binding of AID-affinity beads and Cavβ2 subunit: Cavβ2-AID mutant peptide dilutions were then incubated with biotinylated AID-coated affinity beads for 2 hrs at room temperature with gentle agitation (400 rpm). Samples were placed on a magnetic stand to allow affinity beads to migrate to the magnet. Supernatant was removed and treated with 1× sample buffer (62.5 mM Tris-HCl, pH 6.8, 2% SDS, 10% glycerol, 100 mM DTT, 0.002% Bromophenol Blue) for 5 min at 95° C. Resulting protein was analysed by immunoblot.

cTnI.2 wt myocytes = assay: Flavoprotein oxidation response to BayK(−), wt myocytes (Example 10); type: cell-based, mouse; conditions: 0.5 μM peptide 20 min, 10 μM BayK(−), FIG. 10B
Description: In this experiment wt myocytes were pre-exposed to 0.1, 0.5 or 1 μM for 20 min and assessed changes in flavoprotein oxidation and ψm.
Measurement of mitochondrial flavoprotein oxidation: Flavoprotein autofluorescence was used to measure flavoprotein oxidation based on previously described methods (Yaniv Y, Juhaszova M, Lyashkov A E, Spurgeon H A, Sollott S J, Lakatta E G. Ca2+-regulated-cAMP/PKA signaling in cardiac pacemaker cells links ATP supply to demand. J Mol Cell Cardiol. 2011; 51(5):740-8). […] Fluorescent images were acquired at 1 min intervals with 200 ms exposure. Metamorph 6.3 (Version 7.10.3) was used to quantify the signal by manually tracing myocytes. An equivalent region not containing cells was used as background and was subtracted. Fluorescence values recorded over 5 min before and 5 min after addition of drugs were averaged and alterations in fluorescent ratios reported as the percentage increase from the basal average. FCCP (50 μM) and NaCN (40 mM) was added at the end of each experiment to achieve a respective maximal and minimal fluorescence value indicative of maximal and minimal flavoprotein oxidation.
The ICA-L agonist BayK(−) was used to activate the channel and assess mitochondrial function. […] FIG. 10 presents the mean+/−SEM of flavoprotein fluorescence from cTnI.2 wt and cTnI-G2035 mutant myocytes before and after exposure to 10 μM BayK(−) in the presence of 1 μM AID(S)-TAT, and increasing concentrations of variant peptides as indicated. N=no. of animals, n=no. of cardiomyocytes. P values shown compared with AID(S)-TAT as determined by the Kruskal-Wallis test.

[1] = target: T2, L-type Ca^2+ channel β2 subunit (Homo sapiens, UniProt Q08289); assay: Binding competition assay of variant peptides for the β2 subunit (AID-coated beads, heart lysate, SDS-PAGE); conditions: competition with bead-bound AID peptide, whole heart lysate, immunoblot densitometry; FIG. 2
T2 construct: from tissue; host or cells: whole heart (cardiac) lysate
T2 sequence (Q08289 whole entry): as above
Description: The affinity of each of the variant peptides to the β2 subunit was investigated through binding competition assays.
PureProteome™ NHS FlexiBind Magnetic Beads (Cat. #LSKMAGN04, Merck) were used following manufacturer recommendations. Aminohexanoic acid linked AID peptide was bound to the NHS flexibind magnetic beads at a concentration of more than 2 mg/mL to obtain saturation of the beads with peptide. Beads were first primed with an equilibration buffer (1 mM HCL) to prepare them for binding. The Ahx-AID peptide was dissolved in wash/coupling buffer (PBS, pH 7.4) and added to the beads. The beads-AID peptide mixture was left to mix uniformly on a multiplate shaker at a speed of 300 rpm at room temperature for 2 hours. To reduce non-specific binding the beads were incubated in Quench Buffer (100 mM Tris-HCl, 150 mM NaCl, pH 8.0) at room temperature for 1 hour.
The AID-peptide bound beads were split into 5 aliquots for the 5 samples prepared in Table 5. The whole heart lysate added to each of the peptide-bound beads to allow competitive binding for 2 hours at room temperature.
Upon completion, the conjugate was washed in coupling buffer, to remove unbound fraction. SDS sample buffer was added to the beads, with the tubes then heated for 5 minutes at 95° C. The eluted sample stored at −20° C. to be run through sodium dodecyl sulfate-polyacrymalide gel electrophoresis (SDS-PAGE) to determine the binding affinity of each of the variants.
The use of streptavidin dynabeads and biotinylated peptide was developed to improve the binding affinity assays. The peptide was initially biotinylated using EZ-link amine-PEG11-biotin (Spacer arm: 53.2 Å, Thermofisher Scientific, Cat. #26136) which was dissolved in 0.1M MES buffer ((2-N-morpholino)-ethanesulfonic acid) at a concentration of 1 mM. Just prior to the reaction, 0.1M EDC (N-(3-Dimethylaminopropyl)-N′-ethylcarbodiimide hydrochloride) was dissolved in MES buffer. In order to achieve complete biotinylation of the AID peptide, a 50× molar excess of biotin to peptide was required, with the total volumes of each component required shown in Table 6.
Each 78 μL aliquot of the biotinylated peptide shown in […] was enough for 6 reactions, covering the range of concentrations in which the heart lysate was again prepared with varying concentrations of the variant AID peptides according to Table 7.
The 78 μL aliquot of biotinylated AID-peptide was mixed with streptavidin dynabeads (1 mg Dynabeads per every 200 pmol biotinylated peptide) for half an hour at room temperature. The heart lysate ([…]) was incubated with the variant peptides at room temperature for 2 hours. After removing all unbound peptide from the beads, they were mixed with the pre-bound heart lysate for 2 hours at room temperature. The unbound fraction was removed. […]

[2] = system: myocytes isolated from cTnI-G203S mutant mouse hearts; assay: Mitochondrial flavoprotein oxidation after BayK(−), myocytes from HCM hearts (Example 6); type: cell-based; conditions: FIG. 5
Description: FIG. 5 presents the effect of mutant peptides on flavoprotein oxidation, a measure of metabolic activity and oxygen consumption in myocytes isolated from cTnI-G203S mutant mouse hearts that are hypertrophic.
All in vitro studies were performed in freshly isolated myocytes at 37° C. […] Following a 20 min incubation with 0.5-1 μM AID(S)-TAT, AID-TAT, peptide 6 or peptide 7, fluorescent signal of individual myocytes was quantified using Metamorph 6.3 to measure signal intensity of manually traced cell regions. An equivalent region not containing cells was used for background and was subtracted.
Autofluorescence was used to measure flavoprotein oxidation in cardiac myocytes based on previously described methods (480 nm ex, 535 nm em). Fluorescent images were taken at 1 min intervals with 1 s exposure before and after exposure to L-type Ca2+ channel agonist BayK(−). Fluorescence was reported as a percentage from the baseline pre-treatment average.

cTnI-G203S mice = assay: Echocardiography of pre-cardiomyopathic cTnI-G203S mice (Example 15); type: in vivo, mouse; conditions: 5 μM, 3×/wk/5 wk; versus AID(S)-TAT; FIG. 15
Source text: Twenty to thirty week-old male mice expressing the human cTnI gene encoding the human disease-causing cTnI-G203S were generated and used for the in vivo studies. By way of background, the mice develop hallmark features of HCM between 20 and 25 weeks (Viola H, Johnstone V, Cserne Szappanos H, Richman T, Tsoutsman T, Filipovska A, et al. The L-type Ca(2+) channel facilitates abnormal metabolic activity in the cTnI-G2035 mouse model of hypertrophic cardiomyopathy. J Physiol. 2016; 594(14):4051-70; Viola H M, Shah A A, Johnstone V P A, Cserne Szappanos H, Hodson M P, Hool L C. Characterization and validation of a preventative therapy for hypertrophic cardiomyopathy in a murine model of the disease. Proc Nati Aced Sci U S A. 2020; 117(37):23113-24; Tsoutsman T, Chung J, Doolan A, Nguyen L, Williams IA, Tu E, et al. Molecular insights from a novel cardiac troponin I mouse model of familial hypertrophic cardiomyopathy. J Mol Cell Cardiol. 2006; 41(4):623-32). Age-matched male mice expressing the normal human troponin I gene were used as controls and indicated as wild-type (wt). For in vivo studies, 20-week old cTnI-G203S mice were treated with 10 μM AID(S)-TAT (2 mg/kg) or 5 μM AID-TAT mutant peptides via intraperitoneal injection, 3 times per week for a total duration of 5 weeks. The peptide was dissolved in phosphate buffered saline solution (PBS), and the total amount of the 10 μM AID-TAT mutant peptides administered over 5 weeks was 0.9 mg. The total amount of the 5 μM AID-TAT mutant peptides administered over 5 weeks was 0.45 mg Male mice were utilized to eliminate potential differences in responses due to gender. The number of mice used is indicated by N.
Echocardiographic studies to measure left ventricular function were performed on mice under light methoxyflurane anaesthesia with the use of an i13L probe on a Vivid™ 7 IQ ultrasound system (GE Healthcare, Little Chalfont, UK) as previously described (Viola H, Johnstone V, Cserne Szappanos H, Richman T, Tsoutsman T, Filipovska A, et al. The L-type Ca(2+) channel facilitates abnormal metabolic activity in the cTnI-G2035 mouse model of hypertrophic cardiomyopathy. J Physiol. 2016; 594(14):4051-70; Viola H M, Shah A A, Johnstone V P A, Cserne Szappanos H, Hodson M P, Hool L C. Characterization and validation of a preventative therapy for hypertrophic cardiomyopathy in a murine model of the disease. Proc Natl Acad Sci U S A. 2020; 117(37):23113-24; Viola H M, Johnstone V P A, Cserne Szappanos H, Richman T R, Tsoutsman T, Filipovska A, et al. The Role of the L-Type Ca(2+) Channel in Altered Metabolic Activity in a Murine Model of Hypertrophic Cardiomyopathy. JACC Basic Transl Sci. 2016; 1(1-2):61-72). Each N represents the average of quantitative measurements from wt or cTnI-G203S mice for each treatment group.

Row | Substance | K0.5 values compared to AID peptide (Cavβ2 subunit) | BayK(−) induced increase in flavoprotein oxidation (cTnI.2 wt myocytes) | binding affinity (K0.5) for the target β2 subunit versus the original AID peptide [1] | flavoprotein oxidation in comparison with AID-TAT peptide [2] | IVSd, intraventricular septum in diastole (cTnI-G203S mice) | IVSs, intraventricular septum in systole (cTnI-G203S mice)
1 | QQEEEDEKGYLDWITQAE (Variant P15) | decreased K0.5 values | effective | greater binding affinity (lower K0.5) | statistically significant reduction in flavoprotein oxidation in comparison with AID-TAT peptide |  | 
2 | AIDP16-TAT: QQREEDLKGYLDWITQAE with TAT sequence |  |  |  |  | restored IVSd and IVSs only | restored IVSd and IVSs only
3 | QQEEEDLKGYLDWITQAE (Varian P14) [Variant P14] | decreased K0.5 values | effective | greater binding affinity (lower K0.5) | statistically significant reduction in flavoprotein oxidation in comparison with AID-TAT peptide |  | 
4 | QQREEDLKGYLDWITQAE (Variant P16) | decreased K0.5 values |  | greater binding affinity (lower K0.5) |  |  | 
